Test results as given in PMC8786347 (Oncoimmunology, 2022).

Tests used:
Assay in all cases: ELISA
OX40-moFc = target: T1, OX40-moFc (UniProt P43489 29-214)
T1 sequence (looked up): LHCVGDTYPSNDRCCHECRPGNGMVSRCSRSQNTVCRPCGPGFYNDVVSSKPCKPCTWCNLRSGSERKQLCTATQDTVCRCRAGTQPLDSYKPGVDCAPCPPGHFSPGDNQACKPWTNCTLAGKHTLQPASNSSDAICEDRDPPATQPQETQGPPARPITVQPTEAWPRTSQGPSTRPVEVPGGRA

CD27-moFc = target: T2, CD27-moFc (UniProt P26842 20-191)
T2 sequence (looked up): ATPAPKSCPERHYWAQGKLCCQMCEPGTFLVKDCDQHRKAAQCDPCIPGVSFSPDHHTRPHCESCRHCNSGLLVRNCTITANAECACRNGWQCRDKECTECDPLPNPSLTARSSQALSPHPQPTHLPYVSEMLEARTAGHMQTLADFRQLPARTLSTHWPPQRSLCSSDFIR

CD27-huFc = target: T3, CD27-huFc (UniProt P26842 20-191)
T3 sequence (looked up): T2 sequence (looked up)

Measured: EC50

B1: scCD27L-scOX40L-Fc (Fc fusion, human)
chain 1: SLGWDVAELQLNHTGPQQDPRLYWQGGPALGRSFLHGPELDKGQLRIHRDGIYMVHIQVTLAICSSTTASRHHPTTLAVGICSPASRSISLLRLSFHQGCTIASQRLTPLARGDTLCTNLTGTLLPSRNTDETFFGVQWVRPGGSLGWDVAELQLNHTGPQQDPRLYWQGGPALGRSFLHGPELDKGQLRIHRDGIYMVHIQVTLAICSSTTASRHHPTTLAVGICSPASRSISLLRLSFHQGCTIASQRLTPLARGDTLCTNLTGTLLPSRNTDETFFGVQWVRPGGSLGWDVAELQLNHTGPQQDPRLYWQGGPALGRSFLHGPELDKGQLRIHRDGIYMVHIQVTLAICSSTTASRHHPTTLAVGICSPASRSISLLRLSFHQGCTIASQRLTPLARGDTLCTNLTGTLLPSRNTDETFFGVQWVRP
chain 2: QVSHRYPRIQSIKVQFTEYKKEKGFILTSQKEDEIMKVQNNSVIINCDGFYLISLKGYFSQEVNISLHYQKDEEPLFQLKKVRSVNSLMVASLTYKDKVYLNVTTDNTSLDDFHVNGGELILIHQNPGEFCVLGGGGSGGGGSGGGGSQVSHRYPRIQSIKVQFTEYKKEKGFILTSQKEDEIMKVQNNSVIINCDGFYLISLKGYFSQEVNISLHYQKDEEPLFQLKKVRSVNSLMVASLTYKDKVYLNVTTDNTSLDDFHVNGGELILIHQNPGEFCVLGGGGSGGGGSGGGGSQVSHRYPRIQSIKVQFTEYKKEKGFILTSQKEDEIMKVQNNSVIINCDGFYLISLKGYFSQEVNISLHYQKDEEPLFQLKKVRSVNSLMVASLTYKDKVYLNVTTDNTSLDDFHVNGGELILIHQNPGEFCVL
0.3 nM: OX40-moFc | CD27-moFc | CD27-huFc
